Assay results taken from paper PMC3190825.

Legend:
Test in all cases: SPR
[1] = biological target: IgABR tandem construct of protein β (group B Streptococcus)
[2] = biological target: Recombinant B6N fragment of protein β (single copy) (group B Streptococcus)
[3] = biological target: B6N tandem construct of protein β (group B Streptococcus)

Purified human IgA (natural protein)
Kd [1]: 61 nM

Recombinant hSiglec-5-Fc chimera (from UniProt O15389 17-441) (Fc fusion)
Kd [2]: 14 nM

B1: Recombinant hSiglec-5-Fc chimera (Fc fusion)
chain: EKPVYELQVQKSVTVQEGLCVLVPCSFSYPWRSWYSSPPLYVYWFRDGEIPYYAEVVATNNPDRRVKPETQGRFRLLGDVQKKNCSLSIGDARMEDTGSYFFRVERGRDVKYSYQQNKLNLEVTALIEKPDIHFLEPLESGRPTRLSCSLPGSCEAGPPLTFSWTGNALSPLDPETTRSSELTLTPRPEDHGTNLTCQMKRQGAQVTTERTVQLNVSYAPQTITIFRNGIALEILQNTSYLPVLEGQALRLLCDAPSNPPAHLSWFQGSPALNATPISNTGILELRRVRSAEEGGFTCRAQHPLGFLQIFLNLSVYSLPQLLGPSCSWEAEGLHCRCSFRARPAPSLCWRLEEKPLEGNSSQGSFKVNSSSAGPWANSSLILHGGLSSDLKVSCKAWNIYGSQSGSVLLLQGRSNLGTGVVPAAL
modifications: 125I (chloramine-T method) in the assays with radiolabeled hSiglec-5
Kd [3]: 3.5 nM
